The values below come from patent publication US20220369998A1, “METHODS FOR DIAGNOSING AND TREATING NEURAL DISEASES” (B. G. NEGEV TECHNOLOGIES AND APPLICATIONS LTD., AT …, priority 2019, published 2022).

“Also recorded” adds a separate entry of the source.

The assay concerns young rats (10-12 weeks of age). Nature of the assay: Long-term intra-cerebroventricular albumin perfusion in rats, telemetric ECoG recording and PSWE detection. Type of assay: in vivo, rat. Here is the method: All animal experiments were conducted following an ethical committee approval of the institution in which they were performed, Ben Gurion University of the Negev, Beer-Sheva, Israel or The University of California, Berkeley, Berkeley, Calif., US. Electrodes and wireless transmitters were implanted in the following animal groups: 1) Twelve weeks old (n=5) mice; 2) 18-22 months old (n=12) mice; 3) Nine to 11-weeks-old Wistar male rats implanted with 28 days long intra-cerebroventricular (ICV) perfusion osmotic pumps (N=8, 0.8 mM albumin infusion, N=5 ACSF infusion); 4) Sprague-Dawley rats (n=5, weighing 300 gr) 3 weeks after status epilepticus (SE, see below) and naïve rats (N=3). Groups 1 and 2 electrode coordinates: 0.5 mm rostral or 3.5 mm caudal and 1 mm lateral to bregma, on each side (4 screws, 2 in each hemisphere); Group 3 coordinates: 4.8 mm posterior or 2.7 mm anterior, and 2.2 mm lateral to bregma, on each side (4 screws, 2 in each hemisphere); Group 4 coordinates: 3 mm caudal and 2.5 mm lateral to bregma, on each side (2 screws, 1 in each hemisphere)). Continuous ECoG (sampling rate of 500 Hz) was recorded wirelessly from freely moving animals in their home cage for the described duration of experiments.
Signal processing was performed offline. Pre-processing included high pass filter (1 Hz), low pass filter (100 Hz) and notch (band-stop) filter (45-55 Hz). EEG human recordings were analyzed as reference to average. Human data were preprocessed by EEGLAB. Animal data were preprocessed using home-developed MATLAB (MathWorks Ltd., MA USA) scripts. To detect PSWE, ECoG or EEG signals were buffered into 2 sec long epochs with 1 sec overlap. Spectral analysis by Fast Fourier Transform (FFT) was applied and the median power frequency (MPF) was extracted for each epoch. PSWE was defined if MPF was <6 Hz for >5 consecutive seconds (see results). Analysis was performed separately for each recorded channel. Power spectrum as in FIG. 1A was calculated for the average channel and for animals ECoG data (e.g., FIG. 2A) over a single channel. FFT was also applied for the entire recording period buffered into 8 seconds epoch with 4 seconds overlap to analyze relative power across the frequency spectrum of 1-20 Hz. Processing was performed by self-developed MATLAB scripts.
The inventors next recorded ECoG from young rats (10-12 weeks of age) exposed to ICV albumin (N=8), compared to animals exposed to ACSF (controls, N=5).

[1] abbreviates: ECoG spectral analysis, long-term albumin N=8 vs ACSF N=5.

B1: albumin (protein, UniProt P02770 25-608, looked up)
Albumin: EAHKSEIAHRFKDLGEQHFKGLVLIAFSQYLQKCPYEEHIKLVQEVTDFAKTCVADENAENCDKSIHTLFGDKLCAIPKLRDNYGELADCCAKQEPERNECFLQHKDDNPNLPPFQRPEAEAMCTSFQENPTSFLGHYLHEVARRHPYFYAPELLYYAEKYNEVLTQCCTESDKAACLTPKLDAVKEKALVAAVRQRMKCSSMQRFGERAFKAWAVARMSQRFPNAEFAEITKLATDVTKINKECCHGDLLECADDRAELAKYMCENQATISSKLQACCDKPVLQKSQCLAEIEHDNIPADLPSIAADFVEDKEVCKNYAEAKDVFLGTFLYEYSRRHPDYSVSLLLRLAKKYEATLEKCCAEGDPPACYGTVLAEFQPLVEEPKNLVKTNCELYEKLGEYGFQNAVLVRYTQKAPQVSTPTLVEAARNLGRVGTKCCTLPEAQRLPCVEDYLSAILNRLCVLHEKTPVSEKVTKCCSGSLVERRPCFSALTVDETYVPKEFKAETFTFHSDICTLPDKEKQIKKQTALAELVKHKPKATEDQLKTVMGDFAQFVDKCCKAADKDNCFATEGPNLVARSKEALA
notes: serum protein infused ICV (0.8 mM, 28 days) in rats as a model of chronic BBB disruption
As to B1, under setting [1], the “relative power in alpha (8-12 Hz) band compared with ACSF-injected animals” value is “significantly lower”, the “relative power in beta (12-20 Hz) band compared with ACSF-injected animals” value is listed as “significantly lower” and the “relative power in the delta (1-5 Hz) band compared with ACSF-injected animals” value is listed as “significantly greater”. Also, the “occurrence per minute of PSWEs, albumin-injected hemisphere compared with the non-injected hemisphere” value (ICV osmotic pump, right lateral ventricle, four weeks after onset of perfusion, ipsilateral vs contralateral, N=8) was “significantly higher; also recorded: more common”. Further, for the setting “albumin treated group vs ACSF”, the “PSWE duration compared with the ACSF treated group” value was “significantly longer” and the “PSWE median frequency compared with the ACSF treated group” value was “slower; also recorded: significantly lower”. For the same molecule, the “occurrence per minute of PSWEs, albumin-injected hemisphere compared with ACSF-injected controls” value (four weeks after onset of perfusion, albumin N=8 vs ACSF N=5) is recorded as “significantly higher; also recorded: more common”. Also, the “higher occurrence per minute of PSWEs detected at one week” value (one week after onset of perfusion) is on record as “not at one week”.
